Assay results from patent US7399752.

Target: LS-Rg, chimeric protein of the extracellular domain of human L-selectin joined to the Fc domain of a human G2 immunoglobulin (human) (UniProt P14151)
Test: competition with radio-labeled 2'-F RNA ligand LF1807 for purified LS-Rg

Chain of LS-Rg, chimeric protein of the extracellular domain of human L-selectin joined to the Fc domain of a human G2 immunoglobulin (human) (P14151 39-332, change not shown): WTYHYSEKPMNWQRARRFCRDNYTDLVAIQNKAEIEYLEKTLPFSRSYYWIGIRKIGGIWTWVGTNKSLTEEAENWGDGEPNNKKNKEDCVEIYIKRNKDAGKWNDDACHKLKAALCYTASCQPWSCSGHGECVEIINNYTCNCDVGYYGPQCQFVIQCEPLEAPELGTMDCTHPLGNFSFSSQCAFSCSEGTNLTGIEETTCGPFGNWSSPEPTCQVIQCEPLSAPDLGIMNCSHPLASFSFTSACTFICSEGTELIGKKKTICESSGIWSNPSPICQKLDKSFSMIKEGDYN

With “DREG-56, L-selectin specific blocking monoclonal antibody” the concentration at which inhibition was complete was 300 nM.
